These results are taken from PMC3240604.

The assay concerns the target purified wild-type N1 (C-terminal His tag) (vaccinia virus) (UniProt P17361). The assay is described as follows: SEC-MALS.

On to “purified wild-type N1 (C-terminal His tag) (from UniProt P17361) (natural protein)”, for which the stoichiometry N (usually a count of units in the complex or per binding partner) was determined as 2.
